# Measurements from US20090191198A1 (EBERHARD KARLS UNIVERSITAT TUBINGEN, published 2009).
# T1: soluble NKp80 ectodomain (NKp80-ED), biotinylated, used soluble or immobilized on streptavidin-coated … (human, UniProt Q9NZS2 64-231, biotinylated with BirA ligase at the BirA-tag ; Biotinylated by BirA ligase at the N-terminal BirA-tag (tag not in the letters). Used soluble or immobilized on streptavidin-coated microspheres. …)
# T1 construct: Expressed in 293T cells from pSecTag2/HygroC; also called sNKp80-ED; imNKp80
# T1 sequence: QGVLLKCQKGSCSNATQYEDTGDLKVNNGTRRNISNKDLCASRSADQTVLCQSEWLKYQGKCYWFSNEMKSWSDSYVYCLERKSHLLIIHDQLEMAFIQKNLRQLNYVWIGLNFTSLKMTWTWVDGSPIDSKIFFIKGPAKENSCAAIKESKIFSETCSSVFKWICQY
# B1: NKp80-ED tetramers (biotinylated NKp80 ectodomain tetramerized with PE- or APC-labelled streptavidin) (receptor, not shown: large carriers; small tags and cut ends)
# chain: QGVLLKCQKGSCSNATQYEDTGDLKVNNGTRRNISNKDLCASRSADQTVLCQSEWLKYQGKCYWFSNEMKSWSDSYVYCLERKSHLLIIHDQLEMAFIQKNLRQLNYVWIGLNFTSLKMTWTWVDGSPIDSKIFFIKGPAKENSCAAIKESKIFSETCSSVFKWICQY
# modifications: biotinylated with BirA ligase at the BirA-tag ; Biotinylated by BirA ligase at the BirA-tag. Tetramerized on phycoerythrin- or allophycocyanin-labelled streptavidin (four copies per streptavidin, carrier not in the letters).
# notes: Same polypeptide as m1, tetramerized on labelled streptavidin before use; also called sNKp80-ED tetramers
# Experiments:
# [1] = target: B1; assay: flow cytometry, tetramers on U937 cells
# [2] = target: T1, soluble NKp80 ectodomain (NKp80-ED), …; assay: flow cytometry, NKp80-ED tetramers on microsphere-immobilized NKp80-ED
Binder,binding result [1],binding result [2]
"AICL (Activation-induced C-type Lectin), natural, on myeloid cells (U937, THP-1, monocytes, macrophages, granulocytes) or in their lysates (ligand) MMTKHKKCFIIVGVLITTNIITLIVKLTRDSQSLCPYDWIGFQNKCYYFSKEEGDWNSSKYNCSTQHADLTIIDNIEETNFLRRYKCSSDHWIGLKMAKNRTGQWVDGATFTKSFGMRGSEGCAYLSDDGAATARCYTERKWICRKRIH",binds,
B1,,no binding
